Values quoted from earlier work, collected in patent US20170136096A1, “Insulin-Containing Prolonged-Action Preparation” (OBSCHESTVO S OGRANCHENNOJ OTVETCTVENNOSTU "BIOSABTEK", priority 2014, published 2017).

Settings: administered under the skin, injection solution pH 4

Substance: glargine
- duration of flat time-concentration profile: ≤ 24 h
